In the supplement of paper PMC7125110:
± gives the standard error. This sample holds only a part of the variants without activity.

B1: glmS ribozyme (parent)
chain: AUAAAAGCGCCAGAACUACAGAAAUGUAGUUGACGAGGAGGAGGUUUAUCGAAUUUUCGGCGGAUGCCUCCAAA

Experiments:
Conditions in all cases: with glucosamine-6-phosphate
[1] = variants of: B1; experiment: self-cleavage kobs at 160 uM GlcN6P; higher = faster cleavage; RNA array
How it was run: (§1)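 Ribozyme variants carrying barcodes were transcribed in situ on sequenced MiSeq chips by E. coli RNA polymerase and tracked at 37 °C with a hybridised Cy3 probe. They were exposed to 40 μM to 10 mM glucosamine-6-phosphate in HEPES/KCl/Mg(OAc)2 buffer. kobs came from exponential decay fits of normalised per-tile medians, and kcat and KM from weighted Michaelis–Menten fits.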

[2] = variants of: B1; experiment: self-cleavage kobs at 640 uM GlcN6P; higher = faster cleavage; RNA array
How it was run: as §1

[3] = variants of: B1; experiment: self-cleavage kobs at 2500 uM GlcN6P; higher = faster cleavage; RNA array
How it was run: as §1

[4] = variants of: B1; experiment: self-cleavage kobs at 10000 uM GlcN6P; higher = faster cleavage; RNA array
How it was run: as §1

| Variant | self-cleavage kobs at 160 uM GlcN6P [1] [s⁻¹] | self-cleavage kobs at 640 uM GlcN6P [2] [s⁻¹] | self-cleavage kobs at 2500 uM GlcN6P [3] [s⁻¹] | self-cleavage kobs at 10000 uM GlcN6P [4] [s⁻¹] |
| --- | --- | --- | --- | --- |
| AUAAAAGCGCCAAAACUACAGAAAUGUAGUUGACGAGGAGGUGGUUUAUCGAAUUUUCGGCGGAUGCCUCCAAA | < 1e-05 | < 1e-05 | – | – |
| AUAAAAGCGCCAGACCUACAGAAAUGUAGUCGACGAGGUGGCGGUUUAUCGAAUUUUCGGCGGAUGCCUCCAAA | < 1e-05 | – | – | – |
| AUAAAAGCGCCAGAACUACAGAAAUGUAGUUGACGAGGAGGAGGUUUAUCGACUUUUGGACGGAUGUCUCCAAA | 0.000139 ± 3.1e-05 | – | 8.04e-05 ± 2.5e-05 | – |
| AUAAAAACGCCAGAACUACAGAAAUGUAUUUGACGAGGAGGAGGUUUAUCGAAUUUUCGGCGGAUGCCUCCAAA | < 1e-05 | < 1e-05 | – | – |
| AUAAAAGCGCCAGAACUACAGAAAUGUAGUUGACGAGGAGGAGGUUUAUGGAUUUUUCGGCGGAUGCCUCCAAA | 0.00155 ± 0.00063 | – | – | – |
| AUAAACGAGCCAGAACUACAGAAAUGUAGUCGACGAGGAGGAGGUUUAUCGAAUUUUCGGCGGAUGCCUCCAAA | < 1e-05 | – | < 1e-05 | – |
| AUAAAAGCGCCAGAACUACAGAAAUGUAGUUGAAGAUGAGGAGGUUUGUCGAAUUUUCGGCGGAUGCCUCCAAA | < 1e-05 | – | – | – |
| AUAAAAGCGCCAGAACUACAGAAAUGUAGUUGACGAGGACGAGGUUUAUCGAAUUUUCUGCGGAUGCCUCCAAA | < 1e-05 | < 1e-05 | < 1e-05 | – |
| AUAAAAGCGCCAGACCUACAGAAAUGUAGUUGACGAGGAGGAGGUUUAUCGAAUUUUCGGUGGUUGCCUCCAAA | < 1e-05 | – | – | – |
| AUAAAAGCGCCUGAACUACAGAAAUGUAAUUGACGAGGAGGAGGUUUAUCGAGUUUUCGGCAGAUGCCUCCAAA | < 1e-05 | < 1e-05 | < 1e-05 | – |
| AUAAAAGCGCCAGAACUACAGAAAUGUAGUUGACGUGGAGGAGGUUUAUCGAAUUUCCGGCGGAUGCCUCCAAA | < 1e-05 | – | – | < 1e-05 |
| AUAAAAGCGCCUGAACUACAGAAAUGUAGUUGCCGAGGGGGAGGUUUAUGGGAUUUUCGGCGGAUGCCUCCAAA | < 1e-05 | < 1e-05 | – | – |
| AUAAAAGCGCCAGAACUACAGAAAUGUAGUUGACGAGGAGGAGGAUUAUCGUAUUUUCGGCGGAGGCCUCCAAA | < 1e-05 | < 1e-05 | – | – |
| AUAAAAGCGCCAGAACUACAGAAAUGUAGUUGACGAGGAGGACGAUUAUCGAAUUUUCGGCGGAUGUCUCCAAA | 0.000282 ± 9.2e-05 | 0.000977 ± 0.00034 | 0.00269 ± 0.00071 | – |
| AUAAAAGCGCCAGAACUACAGAAAUGUAGUUGACGAAUAGGAGGUUUAUCGAAUUUUCGGCGGACGCCUCCAAA | < 1e-05 | – | – | < 1e-05 |
| AUAAAAGCGUCAGAACUACAGAAAUGUAGUAGACGAGGAGGAGGUUUAGCGAAUUUUCGGCUGAUGCUUCCAAA | < 1e-05 | – | – | – |
| AUAAAAGCUCCAGAACUACAGAAAUGUAGUUGACGAGGAGGGGGUGUAUCGAAUUUUCGGCGGAUGCCUCCAAA | < 1e-05 | < 1e-05 | – | – |
| AUAAAAGCGCCAGAACUACAGAAAUGUAGUUGACGAGGAGGACGUUUAUCGAAUUAUCGGCGGAUGCCUCCAAA | < 1e-05 | < 1e-05 | < 1e-05 | < 1e-05 |
| AUAAAAGCGCCAGAACUACAGAAAUGUAGUUGACGAGAAGAAGGCUUAUCGGAUUUUCGGCGGAUGCCUCCAAA | < 1e-05 | < 1e-05 | – | – |
| AUAAAAGCGGCAGAACUACAGAAAUGUAGUUGAGGAGAAGGAGGUUAAUCGAAUUUUCGGCGGAUGCCUCCAAA | < 1e-05 | – | – | – |
